Source: PMC10107491, “Phosphorylation of S11 in PHR1 negatively controls its transcriptional activity”

Molecular target: PHR1-His (UniProt Q94CL7 1-409)
Test: EMSA; without SnRK1 (unphosphorylated); 10 mM Tris-HCl pH 8.0, 100 mM NaCl, 10% glycerol, 2 mM DTT, 0.05% NP-40; 0.5 ug protein in 30 ul, 22 C, 30 min; 4.5% acrylamide gel, 0.5x TBE
Conditions: protein: recombinant; tags: His (pET28b(+)); chain copies: 2; label: 32P 5' end label on sense strand (T4 PNK); blunt

Sequence of PHR1-His (Q94CL7 whole entry): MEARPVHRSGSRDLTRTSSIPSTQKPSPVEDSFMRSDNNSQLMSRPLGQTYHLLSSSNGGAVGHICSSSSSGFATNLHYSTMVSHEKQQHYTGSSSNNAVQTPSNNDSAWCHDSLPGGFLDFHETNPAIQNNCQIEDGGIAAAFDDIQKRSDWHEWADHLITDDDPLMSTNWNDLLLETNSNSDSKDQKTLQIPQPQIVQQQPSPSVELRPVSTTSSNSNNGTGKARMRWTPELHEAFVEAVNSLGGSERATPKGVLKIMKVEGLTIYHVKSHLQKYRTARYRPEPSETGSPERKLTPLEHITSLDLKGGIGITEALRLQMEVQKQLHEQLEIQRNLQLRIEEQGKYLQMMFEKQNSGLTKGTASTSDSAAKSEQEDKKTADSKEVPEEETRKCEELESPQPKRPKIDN

B1: AtIPS1 P1BS probe (dsDNA)
DNA 1: CAATTTTGGTAACGGCATATTCCATCGGATGATCCAAAATTCTCAAAA
DNA 2: TTTTGAGAATTTTGGATCATCCGATGGAATATGCCGTTACCAAAATTG
binding result: binds
